Experimental data as given in patent US8648039B2, “Use of alpha-lactalbumin for regulations of glycemia” (Compagnie Laitiere Europeene, priority 2006, dated 2014).

How the values were obtained:
[1] = system: male rats of the Wistar Hannover strain; assay: Postprandial glycemia with glutathione synthesis inhibited by buthionine sulfoximine; assay type: in vivo; details: buthionine sulfoximine injected one hour before the meal; acute
Description: In order to confirm the role of glutathione in the regulation of glycemia and the advantage of α-lactalbumin as a cysteine source from the viewpoint of synthesis of this compound, we used a glutathione-depleted rat model, by inhibiting the synthesis of this compound with buthionine sulfoximine treatment. In these animals, glucose tolerance and insulin sensitivity were measured, and also various parameters related to the oxidative stress state. The replenishing of glutathione stores and the change in the regulation of glycemia were measured in response to diets with various levels of enrichment in α-lactalbumin and cysteine supplementation.
The methodology of example 2, limited to the acute part of the study, was repeated. Four groups of 10 male rats of the Wistar Hannover strain were operated on, after their reception, in order to put in place a venous catheter. This catheter is introduced via the left jugular, descended to the level of the vena cava, and its proximal part interconnects at the cranial level, where it is secured in place so as to allow blood samples to be taken, in the desired amount, from a conscious animal.
One week later, the rats were divided up into 4 groups subjected to the sucrose-rich normal protein meals C0, C1, C2 and alphalac. An injection of buthionine sulfoximine, a […], was given beforehand (one hour before the meal). […]

[2] = system: IRS1 (insulin receptor substrate 1) protein; assay: Activation of the insulin signaling pathway (IRS1 immunoprecipitation, Western blotting) at 6 weeks; assay type: in vivo, male rats of the Wistar Hannover strain; details: muscle; 6 weeks of diet
Description: Four groups of 8 male rats of the Wistar Hannover strain were subjected for 6 weeks to the same sucrose-containing diets as those used in experiments 2 and 3 (P14 containing sucrose, C1, C2 and alphalac). An additional group of 8 rats, this being a non-sucrose control group, fed with a diet P14 containing 14 energy % of total milk proteins without sucrose, was added. This group constitutes the “normal” or “healthy” positive control in the evaluation of the insulin signaling pathway modifications related to the high-sucrose diet.
At 6 weeks, the anesthetized rats receive a dose of 0.750 mU.kg^−1 of insulin, directly injected into the vena cava. This injection makes it possible to light up the insulin signaling pathway and to evaluate the differences in activation between the various groups. 5 min after the injection, the muscle and the liver are removed, ground in a lysis buffer and directly immunoprecipitated with an antibody which recognizes the IRS1 (insulin receptor substrate 1) protein. The immunoprecipitated samples are then loaded onto a gel and then blotted onto a membrane (Western blotting technique). The membranes are successively hybridized with an antiphosphotyrosine antibody (tyrosine phosphorylation of the IRS protein is the first step in the insulin signaling pathway) and then an anti-total IRS1 antibody (FIG. 10).

B1: α-lactalbumin (protein, UniProt P00711 20-142, looked up)
Alpha-lactalbumin: EQLTKCEVFRELKDLKGYGGVSLPEWVCTTFHTSGYDTQAIVQNNDSTEYGLFQINNKIWCKDDQNPHSSNICNISCDKFLDDDLTDDIMCVKKILDKVGINYWLAHKALCSEKLDQWLCEKL
notes: milk serum protein; bovine form 14.2 kD, 123 amino acids
[1]
  influence of inhibition of glutathione synthesis on the effect on postprandial glycemia: does not modify
[2]
  expression of the IRS protein: attenuated
